Measurements reported in the supplement of paper PMC9170038.

Tested on: MS2 coat protein
Test: apparent KD of MS2 coat protein; higher = weaker reporter binding
Conditions: Eterna round: R107
In short: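 Illumina sequencing clusters were used for on-chip transcription of designed RNA switches. Titration with SNAP-549-labelled MS2 coat protein followed, in twofold steps from 0.7 or 1.5 nM to 3 µM in 100 mM Tris-HCl pH 7.5, 80 mM KCl, 4 mM MgCl2, without or with constant ligand. Apparent KD is each design's median of fits to normalised cluster binding curves.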

[1] = input ligand: theophylline 20 uM
[2] = input ligand: theophylline 2 mM
[3] = input ligand: tryptophan 2.4 mM

Sequence	apparent KD of MS2 coat protein (input ligand: arginine 13.2 mM)	apparent KD of MS2 coat protein [1]	apparent KD of MS2 coat protein [2]	apparent KD of MS2 coat protein (input ligand: none)	apparent KD of MS2 coat protein [3]
AAUGGCCGUACCGGAAGGGUGAUCCUCAAACGAGGACCGGUACGGCCGCCACUCGAUAACAUGAGGAUCACCCAUGUAAUACAUA [whbob_X-Trypto_V2.0]	96.4 nM	405 nM	699 nM	–	–
GACAUGAGGAUCACCCAUGUACCGCGAGAAGGAGCGCGGAUAAACGCAGGUAGGUCGCUCGUGGGCUUGUAUUCAAUCGUAAGCU [Anlaaranan]	48.2 nM	187 nM	207 nM	108 nM	80.7 nM
AUAACCCUUGACUAAAACACUAAAUCAGUUCGAGGACCGGUACGGCCGCCACUCGUGUCAAGACAUGAGGAUCACCCAUGUACCU [Isbe]	32 nM	45.4 nM	44.3 nM	–	–
CUCCGAGGCUAUACUAUACGCCUUUGUGAUACCAGAAUAAAUAUAUUCCCUUGGCAGCAUCACAUGAGGAUCACCCAUGUGCCAU [SSTheo A #12]	15.7 nM	27.7 nM	–	–	12.4 nM
AGCACUGUGACGGCCGCCACUACAUAUAGGGUGGUCAGGCCCAUAAUACAUGAGGAUCACCCAUGUAGGACCGGGUCUCAGUGCA [Omei Trp Exc B A v12]	11.7 nM	25.4 nM	18.3 nM	–	–
GGUGGACUUUCGGCCGCCACUGAGAGAGUCGUGUGAACAUGAGGAUCACCCAUGUAAUAUAUAUACAGGACCGGGAGGGUUGUCC [4.O]	20.6 nM	28.7 nM	25 nM	–	–
GCACCAGGUACGGAUACCAGACAUUGCCAAUUGGGUGAACAUGAGGAUCACCCAUGUUAAGUCCCUUGGCAGCCGUACCUGGUGC [ETB NP+V+V2 #6 Same Structure]	11.4 nM	17.7 nM	178 nM	10.6 nM	11.5 nM
UUGUUGUUUGGAAGGAGCGUGUAUGAUUAAGAACAUGAGGAUCACCCAUGUUGUAGGGUAGCACAGGUAGGUCGCCGGGUGGUGG [11.V]	34.8 nM	36.8 nM	31.2 nM	25.1 nM	21.1 nM
AUUAAUAAUAUGUAGACGGCGGAGAAGAGACGAGGACCGGUACGGCCGCCACUCGUGUUAGUUAACAUGAGGAUCACCCAUGUUA [#09 Tryptophan A Same State]	9.55 nM	17.5 nM	12.6 nM	11.8 nM	11.9 nM
UUUUACAUGAGGAUCACCCAUGUACAUGGGCGAGGACCGGUACGGCCGCCACUCGUGGGACCCACGGGCCCGCUUAGUGGGUACA [LarryB_001]	58.3 nM	168 nM	189 nM	87.5 nM	57.4 nM
UUUACAUGAGGAUCACCCAUGUGCCAUGAUACCAGACAUGAAAAUGUCCCUUGGCAGCAUGAAAGAUCCACGUCGGAAACGACGG [Krpole]	72.2 nM	248 nM	–	–	113 nM
ACGCUGAUUGAUUACAAUCAGCGAAAAGAUACCAGUGGGUAAUCCCACCCUUGGCAGCUUAAACUUGAGGAUCACCCAGGUGGUA [TheoAS 17 #MS2Right #BothOrNeither #AlternativeMS2]	88.2 nM	419 nM	439 nM	238 nM	630 nM
AUGCAUAGCCGAAGGAGCGCAGUAGGAUGACAUGAGGAUCACCCAUGUGUGUGAUGUGGAUUGCAGGUAGGUCGCGGAGUGGUAU [Exclusion - Arginine B (Freestyle 5)]	47 nM	128 nM	119 nM	119 nM	58 nM
ACAUGAGGAUCACCCAUGUAAUUGCCGGAAGGAGCGUCAUUAAGGACAGGUAGGUCGCUGGUAGGGUCGUCGGUUACGGCGGCCA [SSArg A #10]	13.3 nM	16.8 nM	13 nM	11.1 nM	13.7 nM
UUCAGCUAGUCGGCCGCCACUACUUGAGGAUCACCCAAGUAAUCCUAACACUGCUUCGGCAGUGGUAGGACCGGGACUAGCUGAG	8.78 nM	12 nM	11.5 nM	10.9 nM	15.1 nM
GCACAUGAGGAUCACCCAUGUACAACUGAAGGAGCGAGACAGAACUCAGGUAGGUCGCAGAAUGCACAAUAGCAUACGACAUGGG [Exclusion Arginine A GF20]	20.2 nM	52.1 nM	23.8 nM	20.8 nM	24.2 nM
ACGAUAGGACUUGAGGAUCACCCAGGUGAUACCAGCCUGGAAACAGGCCCUUGGCAGCACUAAUACUCCAAUAACCUAUCGAAUA [TheoAX 16 #MicroSwitchBubble #AlternativeMS2]	341 nM	347 nM	417 nM	195 nM	332 nM
